This passage reports reverse-splicing fitness results from the RNAGym collection of RNA variant scans (doi:10.1093/molbev/msab373).

B1: Azoarcus group I ribozyme (parent)
chain: GUGCCUUGCGCCGGGAAACCACGCAAGGGAUGGUGUCAAAUUCGGCGAAACCUAAGCGCCCGCCCGGGCGUAUGGCAACGCCGAGCCAAGCUUCGGCGCCUGCGCCGAUGAAGGUGUAGAGACUAGACGGCACCCACCUAAGGCAAACGCUAUGGUGAAGGCAUAGUCCAGGGAGUGGCGAAAGUCACACAAACCGG

Variants of B1 are the subject of the data set. In words: reverse-splicing fitness (ratio to wild type); higher = more active; in vitro selection; Mg2+ level not given. The procedure, abridged:
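An in vitro group I ribozyme library with randomized positions was T7-transcribed and gel-purified. In triplicate, 10 pmol RNA in EPPS pH 7.5 was reacted with 50 pmoles of a 30-nt RNA substrate for 1 h at 37 °C across several added MgCl2 levels (1–48 mM), then stopped with EDTA. Products were reverse transcribed from a substrate-complementary primer, PCR-amplified and sequenced (HiSeq 4000). Fitness is a variant's read proportion after selection over that before, normalised to wild type.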
As for GUGCCUUGCGCCGGGAAACCACGCAAGGGAUGGUGUCAAAUUCGGCGAAACCUAAGCGCCCGCCCGGGCGUAUGGCAACGCAGAGCCAAGCUUCGGCGCCUGCGCCGAUGAAGGUGUAGAGACUAGACGGCACCCACCUAAGGCCAACGUUAUGGUGAAGGCAUAGUCAAGGGAGUGGCGAAAGUCACACAAACCGG [C82A A145C C150U C169A], the reverse-splicing fitness stood at 0.00801.

GUGCCUUGCGCCGGGAAACCACGCAAGGGAUGGUGUCAAAUUCGGCGAAACCUAAGCGCCCGCCCGGGCGUAUGGCAACGCAGAGCCAAGCUUCGGCGCCUGCGCCGAUGAAGGUGUAGAGACUAGACGGCACCCACCUAAGGCCAACGUUAUGGUGAAGGCAUAGUCUAGGGAGUGGCGAAAGUCACACAAACCGG [C82A A145C C150U C169U]: the reverse-splicing fitness is 0.0111.

As to GUGCCUUGCGCCGGGAAACCACGCAAGGGAUGGUGUCAAAUUCGGCGAAACCUAAGCGCCCGCCCGGGCGUAUGGCAACGCAGAGCCAAGCUUCGGCGCCUGCGCCGAUGAAGGUGUAGAGACUAGACGGCACCCACCUAAGGCCAACGUUAUGGUGAAGGCAUAGUCGAGGGAGUGGCGAAAGUCACACAAACCGG [C82A A145C C150U C169G], the reverse-splicing fitness is 0.00747.

As for GUGCCUUGCGCCGGGAAACCACGCAAGGGAUGGUGUCAAAUUCGGCGAAACCUAAGCGCCCGCCCGGGCGUAUGGCAACGCAGAGCCAAGCUUCGGCGCCUGCGCCGAUGAAGGUGUAGAGACUAGACGGCACCCACCUAAGGCCAACGUUAUGGUGAAGGCAUAGUCCAGGGAGUGGCGAAAGUCACACAAACCGG [C82A A145C C150U], the reverse-splicing fitness turned out to be 0.151.

As to GUGCCUUGCGCCGGGAAACCACGCAAGGGAUGGUGUCAAAUUCGGCGAAACCUAAGCGCCCGCCCGGGCGUAUGGCAACGCAGAGCCAAGCUUCGGCGCCUGCGCCGAUGAAGGUGUAGAGACUAGACGGCACCCACCUAAGGCCAACGGUAUGGUGAAGGCAUAGUCUAGGGAGCGGCGAAAGUCACACAAACCGG [C82A A145C C150G C169U U176C], the reverse-splicing fitness was 0.00749.

On to GUGCCUUGCGCCGGGAAACCACGCAAGGGAUGGUGUCAAAUUCGGCGAAACCUAAGCGCCCGCCCGGGCGUAUGGCAACGCAGAGCCAAGCUUCGGCGCCUGCGCCGAUGAAGGUGUAGAGACUAGACGGCACCCACCUAAGGCCAACGGUAUGGUGAAGGCAUAGUCUAGGGAGAGGCGAAAGUCACACAAACCGG [C82A A145C C150G C169U U176A], for which the reverse-splicing fitness was 0.00823.

Turning to GUGCCUUGCGCCGGGAAACCACGCAAGGGAUGGUGUCAAAUUCGGCGAAACCUAAGCGCCCGCCCGGGCGUAUGGCAACGCAGAGCCAAGCUUCGGCGCCUGCGCCGAUGAAGGUGUAGAGACUAGACGGCACCCACCUAAGGCCAACGGUAUGGUGAAGGCAUAGUCUAGGGAGGGGCGAAAGUCACACAAACCGG [C82A A145C C150G C169U U176G], the reverse-splicing fitness turned out to be 0.00534.

Take GUGCCUUGCGCCGGGAAACCACGCAAGGGAUGGUGUCAAAUUCGGCGAAACCUAAGCGCCCGCCCGGGCGUAUGGCAACGCAGAGCCAAGCUUCGGCGCCUGCGCCGAUGAAGGUGUAGAGACUAGACGGCACCCACCUAAGGCCAACGCUAUGGUGAAGGCAUAGUCAAGGGAGCGGCGAAAGUCACACAAACCGG [C82A A145C C169A U176C]: the reverse-splicing fitness amounted to 0.00644.

Regarding GUGCCUUGCGCCGGGAAACCACGCAAGGGAUGGUGUCAAAUUCGGCGAAACCUAAGCGCCCGCCCGGGCGUAUGGCAACGCAGAGCCAAGCUUCGGCGCCUGCGCCGAUGAAGGUGUAGAGACUAGACGGCACCCACCUAAGGCCAACGCUAUGGUGAAGGCAUAGUCAAGGGAGAGGCGAAAGUCACACAAACCGG [C82A A145C C169A U176A], the reverse-splicing fitness was 0.0087.

In the case of GUGCCUUGCGCCGGGAAACCACGCAAGGGAUGGUGUCAAAUUCGGCGAAACCUAAGCGCCCGCCCGGGCGUAUGGCAACGCAGAGCCAAGCUUCGGCGCCUGCGCCGAUGAAGGUGUAGAGACUAGACGGCACCCACCUAAGGCCAACGCUAUGGUGAAGGCAUAGUCAAGGGAGGGGCGAAAGUCACACAAACCGG [C82A A145C C169A U176G], the reverse-splicing fitness is 0.00487.

In the case of GUGCCUUGCGCCGGGAAACCACGCAAGGGAUGGUGUCAAAUUCGGCGAAACCUAAGCGCCCGCCCGGGCGUAUGGCAACGCAGAGCCAAGCUUCGGCGCCUGCGCCGAUGAAGGUGUAGAGACUAGACGGCACCCACCUAAGGCCAACGGUAUGGUGAAGGCAUAGUCCAGGGAGCGGCGAAAGUCACACAAACCGG [C82A A145C C150G U176C], the reverse-splicing fitness stood at 0.0535.

GUGCCUUGCGCCGGGAAACCACGCAAGGGAUGGUGUCAAAUUCGGCGAAACCUAAGCGCCCGCCCGGGCGUAUGGCAACGCAGAGCCAAGCUUCGGCGCCUGCGCCGAUGAAGGUGUAGAGACUAGACGGCACCCACCUAAGGCCAACGGUAUGGUGAAGGCAUAGUCCAGGGAGAGGCGAAAGUCACACAAACCGG [C82A A145C C150G U176A]: the reverse-splicing fitness was determined as 0.0383.

For the variant GUGCCUUGCGCCGGGAAACCACGCAAGGGAUGGUGUCAAAUUCGGCGAAACCUAAGCGCCCGCCCGGGCGUAUGGCAACGCAGAGCCAAGCUUCGGCGCCUGCGCCGAUGAAGGUGUAGAGACUAGACGGCACCCACCUAAGGCCAACGGUAUGGUGAAGGCAUAGUCCAGGGAGGGGCGAAAGUCACACAAACCGG [C82A A145C C150G U176G], the reverse-splicing fitness is 0.00808.

GUGCCUUGCGCCGGGAAACCACGCAAGGGAUGGUGUCAAAUUCGGCGAAACCUAAGCGCCCGCCCGGGCGUAUGGCAACGCAGAGCCAAGCUUCGGCGCCUGCGCCGAUGAAGGUGUAGAGACUAGACGGCACCCACCUAAGGCCAACGUUAUGGUGAAGGCAUAGUCUAGGGAGAGGCGAAAGUCACACAAACCGG [C82A A145C C150U C169U U176A]: the reverse-splicing fitness worked out at 0.0125.

As to GUGCCUUGCGCCGGGAAACCACGCAAGGGAUGGUGUCAAAUUCGGCGAAACCUAAGCGCCCGCCCGGGCGUAUGGCAACGCAGAGCCAAGCUUCGGCGCCUGCGCCGAUGAAGGUGUAGAGACUAGACGGCACCCACCUAAGGCCAACGUUAUGGUGAAGGCAUAGUCUAGGGAGCGGCGAAAGUCACACAAACCGG [C82A A145C C150U C169U U176C], the reverse-splicing fitness turned out to be 0.00806.
